# Measurements reported in article PMC4859490, “Why p-OMe- and p-Cl-β-Methylphenethylamines Display Distinct Activities upon MAO-B Binding” (PLoS ONE, 2016).
# B1: MAO-B (Homo sapiens) (protein)
# chain: SNKCDVVVVGGGISGMAAAKLLHDSGLNVVVLEARDRVGGRTYTLRNQKVKYVDLGGSYVGPTQNRILRLAKELGLETYKVNEVERLIHHVKGKSYPFRGPFPPVWNPITYLDHNNFWRTMDDMGREIPSDAPWKAPLAEEWDNMTMKELLDKLCWTESAKQLATLFVNLCVTAETHEVSALWFLWYVKQCGGTTRIISTTNGGQERKFVGGSGQVSERIMDLLGDRVKLERPVIYIDQTRENVLVETLNHEMYEAKYVISAIPPTLGMKIHFNPPLPMMRNQMITRVPLGSVIKCIVYYKEPFWRKKDYCGTMIIDGEEAPVAYTLDDTKPEGNYAAIMGFILAHKARKLARLTKEERLKKLCELYAKVLGSLEALEPVHYEEKNWCEEQYSGGCYTTYFPPGILTQYGRVLRQPVDRIYFAGTETATHWSGYMEGAVEAGERAAREILHAMGKIPEDEIWQSEPESVDVPAQPITTTFLERHLPSVPGLLRLIGLTTIFSATALGFLAHKRGLLVRV
# Substrate: COc1ccc(C(C)CN)cc1
# Test: purified protein
# Type: biochemical, Homo sapiens
# Settings: FAD substrate binding site (modelled: aromatic cage facing FAD, Tyr398/Tyr435; methoxyl oxygen near Cys172)
protein,measurement,value
B1,Km,87 ± 8 µM
same,kcat,0.233 ± 0.0167 s⁻¹
